Assay results: patent CN114028562A

Target: 天然TSLP
Test: cell-based or functional assay

IC50, inhibition of natural TSLP-induced STAT5 phosphorylation in SW756-STAT5-Luciferase reporter cells: 1.45 ng/mL
Substance: Tezepelumab (antibody)
